Data from patent US20210246166A1 (Bayer, published 2021).
Numbered stars: 1 amine (or outer) side, 2 acyl side, 3 side chain; on linkers, the order of the positions; unused ones are H or OH. Bridge positions count the residues as written; N and C are the ends. Square brackets hold non-standard residues; d marks the D form. Ends that are not written are not given here. * marks the point of attachment. X13 = (2S)‑2‑amino‑3‑(1-methylcyclopropyl)propanoic acid, CC1(C[C@H](N[*:1])C(=O)[*:2])CC1; Piperidin‑4‑ylacetic acid = O=C(CC1CCNCC1)*; Oic = O=C(O)[C@@H]1C[C@@H]2CCCC[C@@H]2N1; Gly(cPent) = N[C@H](C(=O)O)C1CCCC1; NMeI = CC[C@H](C)[C@H](NC)C(=O)O; tBuAla = CC(C)(C)C[C@H](N)C(=O)O; Chg = N[C@H](C(=O)O)C1CCCCC1; Pen = CC(C)(S)[C@H](N)C(=O)O; NMeC = CN[C@@H](CS)C(=O)O; NMeA = CN[C@@H](C)C(=O)O; Ahx = NCCCCCC(=O)O; Sar = CNCC(=O)O

How the values were obtained:
[1] = target: Recombinant human MASP2 enzyme (fragment corresponding to amino acids 297-686, C-terminal His Tag) (human, UniProt O00187 297-686); test: cell-based or functional assay
Sequence of Recombinant human MASP2 enzyme (fragment corresponding to amino acids 297-686, C-terminal His Tag) (O00187 other isoform, or with tags, fused parts or gaps limits assumed): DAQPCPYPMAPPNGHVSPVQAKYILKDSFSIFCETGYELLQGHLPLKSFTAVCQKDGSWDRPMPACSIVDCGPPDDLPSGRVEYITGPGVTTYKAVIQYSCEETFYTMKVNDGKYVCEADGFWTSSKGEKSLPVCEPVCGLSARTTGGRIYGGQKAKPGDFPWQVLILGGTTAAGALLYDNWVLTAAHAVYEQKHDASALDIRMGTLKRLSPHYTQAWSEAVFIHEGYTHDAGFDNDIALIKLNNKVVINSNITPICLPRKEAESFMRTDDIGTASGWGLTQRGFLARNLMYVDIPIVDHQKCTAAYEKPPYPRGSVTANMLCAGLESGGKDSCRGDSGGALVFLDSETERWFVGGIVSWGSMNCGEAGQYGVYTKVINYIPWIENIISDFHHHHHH

[2] = target: T1, Recombinant human MASP1 enzyme (fragment corresponding to amino acids 297-699, C-terminal His Tag) (human, UniProt P48740 297-699); test: cell-based or functional assay
T1 sequence: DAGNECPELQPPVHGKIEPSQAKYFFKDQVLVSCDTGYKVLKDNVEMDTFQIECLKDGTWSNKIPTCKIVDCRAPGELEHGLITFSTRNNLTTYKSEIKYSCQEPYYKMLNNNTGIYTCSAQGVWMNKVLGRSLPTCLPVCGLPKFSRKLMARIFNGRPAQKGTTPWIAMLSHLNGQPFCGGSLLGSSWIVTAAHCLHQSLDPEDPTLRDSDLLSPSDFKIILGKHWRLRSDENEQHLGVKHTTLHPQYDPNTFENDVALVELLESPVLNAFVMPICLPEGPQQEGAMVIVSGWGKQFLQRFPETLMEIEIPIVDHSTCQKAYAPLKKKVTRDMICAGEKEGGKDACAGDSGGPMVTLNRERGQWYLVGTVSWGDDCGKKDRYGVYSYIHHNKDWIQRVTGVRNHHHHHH

B1: AIC+SRSNPPI-(Pen)+IPD-NH2 (peptide)
peptide: AICSRSNPPI[Pen]IPD-NH2
modifications: disulfide 3-11; N-terminus assumed
SMILES: CC[C@H](C)[C@H](NC(=O)[C@H](C)N)C(=O)N[C@H]1CSSC(C)(C)[C@@H](C(=O)N[C@H](C(=O)N2CCC[C@H]2C(=O)N[C@@H](CC(=O)O)C(N)=O)[C@@H](C)CC)NC(=O)[C@H]([C@@H](C)CC)NC(=O)[C@@H]2CCCN2C(=O)[C@@H]2CCCN2C(=O)[C@H](CC(N)=O)NC(=O)[C@H](CO)NC(=O)[C@H](CCCNC(=N)N)NC(=O)[C@H](CO)NC1=O
human MASP2 IC50 [1]: 480 nM
human MASP1 IC50 [2]: 9.4 nM

B2: ((N-Me)A)-IC+SRS-((tBu)A)-PPIC+IPD-NH2 (peptide)
peptide: [NMeA]ICSRS[tBuAla]PPICIPD-NH2
modifications: disulfide 3-11; N-terminus assumed
SMILES: CC[C@H](C)[C@H](NC(=O)[C@H](C)NC)C(=O)N[C@H]1CSSC[C@@H](C(=O)N[C@H](C(=O)N2CCC[C@H]2C(=O)N[C@@H](CC(=O)O)C(N)=O)[C@@H](C)CC)NC(=O)[C@H]([C@@H](C)CC)NC(=O)[C@@H]2CCCN2C(=O)[C@@H]2CCCN2C(=O)[C@H](CC(C)(C)C)NC(=O)[C@H](CO)NC(=O)[C@H](CCCNC(=N)N)NC(=O)[C@H](CO)NC1=O
human MASP2 IC50 [1]: 440 nM
human MASP1 IC50 [2]: 9.5 nM

B3: AIC+SRSLPP-(Chg)-C+IPD-NH2 (peptide)
peptide: AICSRSLPP[Chg]CIPD-NH2
modifications: disulfide 3-11; N-terminus assumed
SMILES: CC[C@H](C)[C@H](NC(=O)[C@H](C)N)C(=O)N[C@H]1CSSC[C@@H](C(=O)N[C@H](C(=O)N2CCC[C@H]2C(=O)N[C@@H](CC(=O)O)C(N)=O)[C@@H](C)CC)NC(=O)[C@H](C2CCCCC2)NC(=O)[C@@H]2CCCN2C(=O)[C@@H]2CCCN2C(=O)[C@H](CC(C)C)NC(=O)[C@H](CO)NC(=O)[C@H](CCCNC(=N)N)NC(=O)[C@H](CO)NC1=O
human MASP2 IC50 [1]: 73.5 nM
human MASP1 IC50 [2]: 9.8 nM

B4: (Ahx)-IC+SRS-((tBu)A)-PPI-(Pen)+IP-NH2 (peptide)
peptide: [Ahx]ICSRS[tBuAla]PPI[Pen]IP-NH2
modifications: disulfide 3-11; N-terminus assumed
SMILES: CC[C@H](C)[C@H](NC(=O)CCCCCN)C(=O)N[C@H]1CSSC(C)(C)[C@@H](C(=O)N[C@H](C(=O)N2CCC[C@H]2C(N)=O)[C@@H](C)CC)NC(=O)[C@H]([C@@H](C)CC)NC(=O)[C@@H]2CCCN2C(=O)[C@@H]2CCCN2C(=O)[C@H](CC(C)(C)C)NC(=O)[C@H](CO)NC(=O)[C@H](CCCNC(=N)N)NC(=O)[C@H](CO)NC1=O
human MASP2 IC50 [1]: 16 nM
human MASP1 IC50 [2]: 9.9 nM

B5: IC+SRS-((tBu)A)-PP-I-((N-Me)C)+IPD-NH2 (peptide)
peptide: ICSRS[tBuAla]PPI[NMeC]IPD-NH2
modifications: disulfide 2-10; N-terminus assumed
SMILES: CC[C@H](C)[C@H](N)C(=O)N[C@H]1CSSC[C@@H](C(=O)N[C@H](C(=O)N2CCC[C@H]2C(=O)N[C@@H](CC(=O)O)C(N)=O)[C@@H](C)CC)N(C)C(=O)[C@H]([C@@H](C)CC)NC(=O)[C@@H]2CCCN2C(=O)[C@@H]2CCCN2C(=O)[C@H](CC(C)(C)C)NC(=O)[C@H](CO)NC(=O)[C@H](CCCNC(=N)N)NC(=O)[C@H](CO)NC1=O
human MASP2 IC50 [1]: 620 nM
human MASP1 IC50 [2]: 10 nM

B6: kIC+SRS-((tBu)A)-PPI-(Pen)+I-NH2 (peptide)
peptide: [dK]ICSRS[tBuAla]PPI[Pen]I-NH2
modifications: disulfide 3-11; N-terminus assumed
SMILES: CC[C@H](C)[C@H](NC(=O)[C@H]1NC(=O)[C@H]([C@@H](C)CC)NC(=O)[C@@H]2CCCN2C(=O)[C@@H]2CCCN2C(=O)[C@H](CC(C)(C)C)NC(=O)[C@H](CO)NC(=O)[C@H](CCCNC(=N)N)NC(=O)[C@H](CO)NC(=O)[C@@H](NC(=O)[C@@H](NC(=O)[C@H](N)CCCCN)[C@@H](C)CC)CSSC1(C)C)C(N)=O
human MASP2 IC50 [1]: 110 nM
human MASP1 IC50 [2]: 10 nM

B7: IC+SRS-((tBu)A)-PPI-(Pen)+IP-OH (peptide)
peptide: ICSRS[tBuAla]PPI[Pen]IP-OH
modifications: disulfide 2-10; N-terminus assumed
SMILES: CC[C@H](C)[C@H](N)C(=O)N[C@H]1CSSC(C)(C)[C@@H](C(=O)N[C@H](C(=O)N2CCC[C@H]2C(=O)O)[C@@H](C)CC)NC(=O)[C@H]([C@@H](C)CC)NC(=O)[C@@H]2CCCN2C(=O)[C@@H]2CCCN2C(=O)[C@H](CC(C)(C)C)NC(=O)[C@H](CO)NC(=O)[C@H](CCCNC(=N)N)NC(=O)[C@H](CO)NC1=O
human MASP2 IC50 [1]: 400 nM
human MASP1 IC50 [2]: 10 nM

B8: (Piperidin-4-ylacetic acid)-IC+SRS-((tBu)A)-PPI-((N-Me)C)+I-NH2 (peptide)
peptide: {Piperidin‑4‑ylacetic acid}-ICSRS[tBuAla]PPI[NMeC]I-NH2
modifications: disulfide 2-10
SMILES: CC[C@H](C)[C@H](NC(=O)[C@@H]1CSSC[C@H](NC(=O)[C@@H](NC(=O)CC2CCNCC2)[C@@H](C)CC)C(=O)N[C@@H](CO)C(=O)N[C@@H](CCCNC(=N)N)C(=O)N[C@@H](CO)C(=O)N[C@@H](CC(C)(C)C)C(=O)N2CCC[C@H]2C(=O)N2CCC[C@H]2C(=O)N[C@@H]([C@@H](C)CC)C(=O)N1C)C(N)=O
human MASP2 IC50 [1]: 32 nM
human MASP1 IC50 [2]: 10 nM

B9: A-((N-Me)I)-C+SRSLPPIC+IPD-NH2 (peptide)
peptide: A[NMeI]CSRSLPPICIPD-NH2
modifications: disulfide 3-11; N-terminus assumed
SMILES: CC[C@H](C)[C@@H]1NC(=O)[C@@H]2CCCN2C(=O)[C@@H]2CCCN2C(=O)[C@H](CC(C)C)NC(=O)[C@H](CO)NC(=O)[C@H](CCCNC(=N)N)NC(=O)[C@H](CO)NC(=O)[C@@H](NC(=O)[C@H]([C@@H](C)CC)N(C)C(=O)[C@H](C)N)CSSC[C@@H](C(=O)N[C@H](C(=O)N2CCC[C@H]2C(=O)N[C@@H](CC(=O)O)C(N)=O)[C@@H](C)CC)NC1=O
human MASP2 IC50 [1]: 2700 nM
human MASP1 IC50 [2]: 10.1 nM

B10: AIC+SRSLPP-(Cpg)-C+IPD-NH2 (peptide)
peptide: AICSRSLPP[Gly(cPent)]CIPD-NH2
modifications: disulfide 3-11; N-terminus assumed
SMILES: CC[C@H](C)[C@H](NC(=O)[C@H](C)N)C(=O)N[C@H]1CSSC[C@@H](C(=O)N[C@H](C(=O)N2CCC[C@H]2C(=O)N[C@@H](CC(=O)O)C(N)=O)[C@@H](C)CC)NC(=O)[C@H](C2CCCC2)NC(=O)[C@@H]2CCCN2C(=O)[C@@H]2CCCN2C(=O)[C@H](CC(C)C)NC(=O)[C@H](CO)NC(=O)[C@H](CCCNC(=N)N)NC(=O)[C@H](CO)NC1=O
human MASP2 IC50 [1]: 170 nM
human MASP1 IC50 [2]: 11 nM

[Sar]ICSRSLP[Oic]I[Pen]IP-NH2 (disulfide 3-11; also: tartrate salt) [((N-Me)G)-IC+SRSLP-(Oic)-I-(Pen)+IP-NH2 (Tartrate)]
human MASP2 IC50 [1]: 35 nM
human MASP1 IC50 [2]: 1.1 nM

B11: IC+SRSLP-(Oic)-I-(Pen)+IP-OH (peptide)
peptide: ICSRSLP[Oic]I[Pen]IP-OH
modifications: disulfide 2-10; N-terminus assumed
SMILES: CC[C@H](C)[C@H](N)C(=O)N[C@H]1CSSC(C)(C)[C@@H](C(=O)N[C@H](C(=O)N2CCC[C@H]2C(=O)O)[C@@H](C)CC)NC(=O)[C@H]([C@@H](C)CC)NC(=O)[C@@H]2C[C@@H]3CCCC[C@@H]3N2C(=O)[C@@H]2CCCN2C(=O)[C@H](CC(C)C)NC(=O)[C@H](CO)NC(=O)[C@H](CCCNC(=N)N)NC(=O)[C@H](CO)NC1=O
human MASP2 IC50 [1]: 1200 nM
human MASP1 IC50 [2]: 11 nM

B12: ((N-Me)G)-((N-Me)G)-((N-Me)G)-((N-Me)G)-((N-Me)G)-IC+SRS-((tBu)A)-PPI-(Pen)+IP-NH2 (peptide)
peptide: [Sar][Sar][Sar][Sar][Sar]ICSRS[tBuAla]PPI[Pen]IP-NH2
modifications: disulfide 7-15; N-terminus assumed
SMILES: CC[C@H](C)[C@H](NC(=O)CN(C)C(=O)CN(C)C(=O)CN(C)C(=O)CN(C)C(=O)CNC)C(=O)N[C@H]1CSSC(C)(C)[C@@H](C(=O)N[C@H](C(=O)N2CCC[C@H]2C(N)=O)[C@@H](C)CC)NC(=O)[C@H]([C@@H](C)CC)NC(=O)[C@@H]2CCCN2C(=O)[C@@H]2CCCN2C(=O)[C@H](CC(C)(C)C)NC(=O)[C@H](CO)NC(=O)[C@H](CCCNC(=N)N)NC(=O)[C@H](CO)NC1=O
human MASP2 IC50 [1]: 38 nM
human MASP1 IC50 [2]: 11 nM

B13: ((N-Me)G)-IC+SRS-((2S)-2-amino-3-(1-methylcyclopropyl)propanoic acid)-P-(Oic)-I-(Pen)+IP-NH2 (peptide)
peptide: [Sar]ICSRS[X13]P[Oic]I[Pen]IP-NH2
modifications: disulfide 3-11; N-terminus assumed
SMILES: CC[C@H](C)[C@H](NC(=O)CNC)C(=O)N[C@H]1CSSC(C)(C)[C@@H](C(=O)N[C@H](C(=O)N2CCC[C@H]2C(N)=O)[C@@H](C)CC)NC(=O)[C@H]([C@@H](C)CC)NC(=O)[C@@H]2C[C@@H]3CCCC[C@@H]3N2C(=O)[C@@H]2CCCN2C(=O)[C@H](CC2(C)CC2)NC(=O)[C@H](CO)NC(=O)[C@H](CCCNC(=N)N)NC(=O)[C@H](CO)NC1=O
human MASP2 IC50 [1]: 57 nM
human MASP1 IC50 [2]: 11 nM

B14: AIC+SRS-((tBu)A)-P-(Oic)-I-((N-Me)C)+IPD-NH2 (peptide)
peptide: AICSRS[tBuAla]P[Oic]I[NMeC]IPD-NH2
modifications: disulfide 3-11; N-terminus assumed
SMILES: CC[C@H](C)[C@H](NC(=O)[C@H](C)N)C(=O)N[C@H]1CSSC[C@@H](C(=O)N[C@H](C(=O)N2CCC[C@H]2C(=O)N[C@@H](CC(=O)O)C(N)=O)[C@@H](C)CC)N(C)C(=O)[C@H]([C@@H](C)CC)NC(=O)[C@@H]2C[C@@H]3CCCC[C@@H]3N2C(=O)[C@@H]2CCCN2C(=O)[C@H](CC(C)(C)C)NC(=O)[C@H](CO)NC(=O)[C@H](CCCNC(=N)N)NC(=O)[C@H](CO)NC1=O
human MASP2 IC50 [1]: 370 nM
human MASP1 IC50 [2]: 12 nM
